Reference: US7264809B1, “Methods of inhibiting platelet activation and recruitment” (Immunex Corporation, priority 1998, dated 2007)

Columns and labels:
[1] = test system: injured coronary artery segments; experiment: Percutaneous transluminal coronary angioplasty (balloon injury) study
Text: Porcine platelets and fibrinogen were labeled with ^111Indium and ^125Iodine respectively for infusion into pigs. […] Oral ASA was given to all pigs for at least three day prior to the coronary angioplasty procedure, and heparin (100 U/kg) was given at the time of the angioplasty. One to three days prior to the angioplasty an external jugular line was inserted to administer the labeled platelets and fibrin, CD39 or saline, and to facilitate blood draws. Labeled platelets and fibrinogen were given approximately 18 hours prior to balloon injury. Coronary arteries were injured using an oversize balloon. A coronary guide catheter was first advanced into the ascending aorta. An oversized balloon was then advanced into a coronary vessel and inflated at 6 to 8 atmospheres for a total of thirty seconds. The balloon was then deflated and withdrawn. The average ratio of balloon size to vessel size was 1.32 for the placebo group and 1.29 for the CD39 group.
Platelet aggregation and bleeding time were measured 30 minutes after administration. […] Moreover, no bleeding was noted during PTCA or after sheath removal and there was no significant difference in hematocrit or platelet counts between the groups.
After the radioactivity decayed, toluidine-blue stained injured coronary artery segments were examined histologically, in order to further characterize the extent of thrombus formation. A blinded observer qualitatively evaluated the degree of histologic injury in the coronary segments by assessing, on a scale of 1-4 with 4 being the most severe injury, the severity of medial and internal elastic lamina tear, medial separation, and hemorrhage. A composite injury score was obtained by totaling, the three individual scores. The medial injury scores for the placebo and CD39 groups were 2.5 and 2.2 respectively; medial separation scores for the placebo and CD39 groups were 2.0 and 1.6 respectively; the degree of hemorrhage for the placebo and CD39 groups were 2.3 and 2.5 respectively. The composite injury scores for the placebo and CD39 groups were […] and 6.2 respectively. These in vivo results correlate well with results, reported herein, obtained in vitro and ex vivo.

[2] = design: species or system pigs; details: pig, in vivo
Protocol: (§1) Aspirin was administered orally on a daily basis. Placebo controls consisted of aspirin. Saline controls and solCD39 were administered as a single bolus. Time points were measured following this administration. Blood samples were obtained via an external jugular vein catheter. […] ADP-induced platelet aggregation was measured at specific time intervals following administration. The concentration of CD39 in serum as a function of time was measured using an ELISA assay. Distribution and clearance half-lives were determined using a biphasic curve fit.

[3] = Bleeding time and tolerability in pigs; assay type: in vivo, Yorkshire-Hampshire pigs
Protocol: as §1, with “assay.” for “assay. Distribution and clearance half-lives were determined using a biphasic curve fit.”

Bleeding time in mice = assay type: in vivo; details: aspirin 5 mg/kg; increasing doses of solCD39 (4, 8, 20 mg/kg)
Text: (*p<0.05, ^‡p<0.01, ^†p<0.001).
Hematological profiles, including erythrocyte parameters, platelet counts, leukocyte counts and differentials, and coagulation screening, were normal. […] Under those conditions, the defect was abolished and normal blood fluidity was restored by administration of soluble CD39.

platelets = experiment: ADP-induced platelet aggregation after solCD39 bolus in pigs; assay type: in vivo, Yorkshire-Hampshire pigs; details: high dose solCD39
Protocol: as §1, with “assay.” for “assay. Distribution and clearance half-lives were determined using a biphasic curve fit.”

mouse platelets = experiment: Reversal of ADP-induced aggregation of mouse platelets in vitro; assay type: cell-based; details: 5 μM ADP; soluble CD39 2.5 or 1.25 μg/ml
Protocol: ADP (5 μM) was added to mouse platelets in vitro to induce an aggregation response. Soluble CD39 (2.5 μg/ml or 1.25 μg/ml) was added at the peak of the aggregation response.

[4] = Phosphate release assay for ATPase activity; assay type: biochemical; details: for ATPase activity, CPM × 10^3 (net counts): Table 3, 5-day 1× COS-1 sups
Protocol: This example describes an ATPase assay that may be used to track enzyme activity. Samples (approximately 100 μl of either concentrated CM or purified polypeptide) are combined with 20 μl of 10× assay buffer (200 mM HEPES, 1.2 M NaCl, 50 mM KCl, 15 mM CaCl2, 15 mM MgCl2 and 3 mM ATP) and sterile water is added to a final volume of 200 μl. Radiolabeled ATP (0.8 μCi γ [^32P] ATP; Amersham, Arlington Heights, Ill.) is added and the mixture incubated for 20 minutes at 37° C. […] After centrifugation (14K rpm for 10 minutes), the supernatant is assayed for free ^32P using a scintillation counter. Data are expressed as raw counts or net counts, or as picomoles of ATP degraded per minute. […] The transfections were repeated and the CM (10, 20 and 30 μL, unconcentrated) was assayed essentially as described in Example 7. […] ATPase levels in CM from COS-1 cells transfected with pIL2LFlagSolCD39 increased with time in culture over at least 4 days post-transfection. To determine whether activity was affected by removal of the N-terminal FLAG® tag, COS-1 cells were transfected with pIL2LFlagSolCD39 and pIL2LSolCD39 and supernatants (sups) were harvested after 5 days. Samples of 10, 20 and 30 μL of 1× sups were assayed for ATPase activity as described in Example 7. […] The expression of Trim1 and Trim2 constructs was analyzed in COS-1 cells cultured in 10 cm plates. After 5 days of incubation, 1× supernatants were examined via ELISA (using anti-CD39) and the phosphate-release assay described in Example 7. […] Expression levels, however, appeared to be reduced 3-4 fold.

[5] = Mouse lung ischemia-reperfusion survival model; assay type: in vivo, C57BL/6 mice; details: 8 mg/kg i.v.
Protocol: C57BL/6 mice were anesthetized and ventilated, and their thoraces were opened to surgically expose both pulmonary hila. Either physiological saline or soluble CD39 (8 mg/kg) was administered intravenously, after which the left pulmonary hilum was cross-clamped for one hour. The cross-clamp was removed for three hours of reperfusion, and then a cross-clamp was applied to the right hilum for a thirty minute observation period. This latter maneuver effectively removed the normal lung from circulation, so that the mouse must survive on the function of the post-ischemic left lung. The results are shown, in the form of a Kaplan-Meier survival plot, in FIG. 23.

[6] = 670 μg/kg i.v. plus heparin and ASA, 24 hours after balloon injury

B1: solCD39: recombinant soluble human CD39, untagged: 12 mature huIL2 residues, three amino acid linker, sol CD39 (SEQ ID NO:7) (protein)
chain: MALWIDRMQLLSCIALSLALVTNSAPTSSSTKKTQLTSSTQNKALPENVKYGIVLDAGSSHTSLYIYKWPAEKENDTGVVHQVEECRVKGPGISKFVQKVNEIGIYLTDCMERAREVIPRSQHQETPVYLGATAGMRLLRMESEELADRVLDVVERSLSNYPFDFQGARIITGQEEGAYGWITINYLLGKFSQKTRWFSIVPYETNNQETFGALDLGGASTQVTFVPQNQTIESPDNALQFRLYGKDYNVYTHSFLCYGKDQALWQKLAKDIQVASNEILRDPCFHPGYKKVVNVSDLYKTPCTKRFEMTLPFQQFEIQGIGNYQQCHQSILELFNTSYCPYSQCAFNGIFLPPLQGDFGAFSAFYFVMKFLNLTSEKVSQEKVTEMMKKFCAQPWEEIKTSYAGVKEKYLSEYCFSGTYILSLLLQGYHFTADSWEHIHFIGKIQGSDAGWTLGYMLNLTNMIPAEQPLSTPLSHST
Q: For B1, which “Fibrin Deposition Ratio” value [1, 6] is on record?
A: The value was 0.62 ± 0.10.

Q: And the “Platelet Deposition Ratio” value [1, 6]?
A: The value was 1.25 ± 0.19.

Q: And the “Bleeding Time” value ([1]; 30 minutes after administration)?
A: Its value is 7.00 ± 0.81.

Q: What about the medial injury score ([1]; histology, scale of 1-4) of the same molecule?
A: Its medial injury score is 2.2.

Q: What about the medial separation score ([1]; histology, scale of 1-4) of the same molecule?
A: The medial separation score was 1.6.

Q: What about the degree of hemorrhage ([1]; pig, in vivo) of the same molecule?
A: The degree of hemorrhage was 2.5.

Q: And the tolerability ([1]; pigs, PTCA)?
A: Its tolerability is “well tolerated”.

Q: What about the composite injury score ([1]; total of three scores) of the same molecule?
A: Its composite injury score is 6.2.

Q: What about the “elimination half-life of biological activity (ADPase activity)” value [2] of the same molecule?
A: The value was 5-7 days.

Q: And the “t1/2α (distribution phase)” value [2]?
A: Its value is 29 min.

Q: What about the anemia or thrombocytopenia ([3]; pig, in vivo) of the same molecule?
A: The anemia or thrombocytopenia was “did not induce”.

Q: And the tolerability ([3]; pigs, 72-670 μg/kg bolus)?
A: The tolerability was “well tolerated”.

Q: What about the bleeding times (Bleeding time in mice) of the same molecule?
A: The bleeding times was “markedly increased”.

Q: And the “inhibition of platelet aggregation at two weeks” value (platelets)?
A: Its value is 30%.

Q: And the “aggregation response when added at the peak” value (mouse platelets)?
A: Its value is “immediately reversed”.

Q: And the “ATPase activity, CPM × 10^3 (net counts)” value ([4]; 10 μL)?
A: The value was 20.1 CPM × 10^3.

Q: And the “ATPase activity, CPM × 10^3 (net counts)” value ([4]; 20 μL)?
A: The value was 36.0 CPM × 10^3.

Q: What about the “ATPase activity, CPM × 10^3 (net counts)” value ([4]; 30 μL) of the same molecule?
A: The value was 51.0 CPM × 10^3.

Q: And the “Activity (pmol ATP/min/μg) × 10^3” value ([4]; specific activity in COS-1 CM, concentration by ELISA)?
A: The value was 5.67 (pmol ATP/min/μg) × 10^3.

Q: And the “survival at thirty minutes on post-ischemic lung” value [5]?
A: Its value is “survived”.
